Among the data in article PMC6098246, “Zinc(II) binding on human wild-type ISCU and Met140 variants modulates NFS1 desulfurase activity” (Biochimie, 2018) are Kd values, retold here.

B1: biotinylated human ISCU wild-type (Δ1-34) (natural protein, UniProt Q9H1K1 35-167, looked up)
chain: YHKKVVDHYENPRNVGSLDKTSKNVGTGLVGAPACGDVMKLQIQVDEKGKIVDARFKTFGCGSAIASSSLATEWVKGKTVEEALTIKNTDIAKELCLPPVKLHCSMLAEDAIKAALADYKLKQEPKKGEAEKK
modifications: biotin (site not stated)
notes: human ISCU, construct Δ1-34 of the 167-aa precursor (133-aa mature protein without the mitochondrial signal peptide); the two conditions are two assays; Measured mass of the apo-protein 14604 Da; also called ISCUWT; WT; source: E. coli BL21 (DE3)-R3-pRARE2, purified (Ni Sepharose, Superdex S75, His-tag removed by TEV)
B2: biotinylated human ISCU M140L (Δ1-34) (natural protein, UniProt Q9H1K1 35-167, looked up)
chain: B1 chain with M106L
modifications: biotin (site not stated)
notes: human ISCU, construct Δ1-34 of the 167-aa precursor, variant M140L; source: E. coli BL21 (DE3)-R3-pRARE2, purified (Ni Sepharose, Superdex S75, His-tag removed by TEV)
B3: biotinylated human ISCU M140V (Δ1-34) (natural protein, UniProt Q9H1K1 35-167, looked up)
chain: B1 chain with M106V
modifications: biotin (site not stated)
notes: human ISCU, construct Δ1-34 of the 167-aa precursor, variant M140V; source: E. coli BL21 (DE3)-R3-pRARE2, purified (Ni Sepharose, Superdex S75, His-tag removed by TEV)
B4: biotinylated human ISCU M140I (Δ1-34) (natural protein, UniProt Q9H1K1 35-167, looked up)
chain: B1 chain with M106I
modifications: biotin (site not stated)
notes: human ISCU, construct Δ1-34 of the 167-aa precursor, variant M140I; source: E. coli BL21 (DE3)-R3-pRARE2, purified (Ni Sepharose, Superdex S75, His-tag removed by TEV)

Numbering of substitutions follows the chain as printed. In names and notes the source's numbering stands.

The target of the first assay is T1, NFS1-ISD11-ACP (SDA) complex (human | E. coli, UniProt Q9Y697 56-457; Q9HD34 1-91; P0A6A8 1-78).
T1 construct: human cysteine desulfurase NFS1, non-tagged, construct Δ1-55; human ISD11 (LYRM4), His-tagged; E. coli acyl carrier protein (ACP) of the expression host, co-purified with NFS1-ISD11; PLP was added during the purification; also called NFS1-ISD11-ACP desulfurase complex; NFS1-ISD11 complex; source: co-purified with E. coli ACP; copies: + +
T1 sequence (Q9Y697 56-457, chain 1 of 3): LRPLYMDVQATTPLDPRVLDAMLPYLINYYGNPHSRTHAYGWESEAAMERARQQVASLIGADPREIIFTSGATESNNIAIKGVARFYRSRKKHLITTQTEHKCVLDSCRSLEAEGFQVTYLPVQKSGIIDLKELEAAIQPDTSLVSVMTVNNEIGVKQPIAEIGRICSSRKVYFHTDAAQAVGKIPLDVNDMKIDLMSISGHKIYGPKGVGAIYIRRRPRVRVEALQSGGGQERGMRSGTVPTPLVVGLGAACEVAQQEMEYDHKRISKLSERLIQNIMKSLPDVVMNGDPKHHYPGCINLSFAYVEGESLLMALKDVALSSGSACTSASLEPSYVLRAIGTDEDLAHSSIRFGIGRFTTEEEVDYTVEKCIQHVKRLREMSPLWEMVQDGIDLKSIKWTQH
T1 sequence (Q9HD34 whole entry, chain 2 of 3): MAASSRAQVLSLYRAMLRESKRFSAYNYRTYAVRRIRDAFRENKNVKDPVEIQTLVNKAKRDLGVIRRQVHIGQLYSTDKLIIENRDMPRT
T1 sequence (P0A6A8 whole entry, chain 3 of 3): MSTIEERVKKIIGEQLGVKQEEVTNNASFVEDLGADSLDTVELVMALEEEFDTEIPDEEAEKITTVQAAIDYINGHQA
The experiment in a line: BLI; biotinylated ISCU on streptavidin sensors, SDA 10 uM to 1.56 nM in solution; 25 °C; 50 mM HEPES pH 7.5, 200 mM NaCl, 5% glycerol, 2 mM TCEP, 5 mM DTT, 0.5 mg/mL BSA, with 100 uM ZnCl2 (zinc-bound ISCU); Kd from response vs. [NFS1], one site-specific binding fit. Conditions: both partners purified. (In general: BLI is a label-free optical method that tracks binding on a fibre tip over time.)
B1 came in with a Kd of 160 nM.
As to B2, binding was put at a Kd of 181 nM.
On the same count and under the same terms, for B3 the value was 218 nM; for B4, 194 nM.

For a further assay, the target named is T1, NFS1-ISD11-ACP (SDA) complex. In words: BLI; biotinylated ISCU on streptavidin sensors, SDA 10 uM to 1.56 nM in solution; 25 °C; 50 mM HEPES pH 7.5, 200 mM NaCl, 5% glycerol, 2 mM TCEP, 5 mM DTT, 0.5 mg/mL BSA, with 300 uM EDTA (zinc-depleted ISCU); Kd from response vs. [NFS1], one site-specific binding fit. Conditions: both partners purified.
Turning to B1, the Kd was determined as 87.8 nM.
Same read-out and setting: under B2 stands 110 nM; under B3, 85.5 nM.
On the same count and under the same terms, under B4 stands 97.3 nM.

The term Kd denotes the equilibrium constant for the complex coming apart.
